Experimental data taken from publication PMC11271964, “Design and characterization of hyperactive mutants of the Agrobacterium tumefaciens telomere resolvase, TelA”.

Tests used:
[1] = target: TelA (107–442) N-terminal domain deletion mutant with the E337K mutation (Agrobacterium tumefaciens)
[2] = target: T1, TelA N-terminal domain (N) (Agrobacterium tumefaciens, UniProt Q7CWV1 1-106); assay: EMSA; 2 mM Ca2+; laddering bandshift; EMSA: HEPES pH 7.6, 1 mM DTT, 2 mM CaCl2, 100 ug/mL BSA, 50 mM potassium glutamate, 0.8 ug/mL supercoiled pUC19 competitor, 76 ng/mL heparin sulphate, 2 nM labeled rTel, 0 C; details: protein: recombinant; label: 5'-fluorescein on strand 1; 5' overhang 2 nt at both ends
T1 sequence: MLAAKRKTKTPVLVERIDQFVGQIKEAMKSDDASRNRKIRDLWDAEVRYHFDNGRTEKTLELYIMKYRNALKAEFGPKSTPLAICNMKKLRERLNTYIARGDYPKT

[3] = target: T2, TelA N-terminal domain (N; K9E) (Agrobacterium tumefaciens, UniProt Q7CWV1 1-106, K9E); assay: EMSA; 2 mM Ca2+; EMSA: HEPES pH 7.6, 1 mM DTT, 2 mM CaCl2, 100 ug/mL BSA, 50 mM potassium glutamate, 0.8 ug/mL supercoiled pUC19 competitor, 76 ng/mL heparin sulphate, 2 nM labeled rTel, 0 C; details: protein: recombinant; label: 5'-fluorescein on strand 1; 5' overhang 2 nt at both ends
T2 sequence: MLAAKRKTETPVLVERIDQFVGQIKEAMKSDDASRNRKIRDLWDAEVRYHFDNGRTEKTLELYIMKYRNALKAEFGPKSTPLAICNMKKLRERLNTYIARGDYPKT

TelA (ΔNΔC3; D202RE337K) = target: T3, TelA (ΔNΔC3; D202RE337K) (Agrobacterium tumefaciens, UniProt Q7CWV1 107-439, D202R;E337K); assay: as above; details: protein: recombinant; chain copies: 2; label: 5'-fluorescein on strand 1; 5' overhang 2 nt at both ends
T3 sequence: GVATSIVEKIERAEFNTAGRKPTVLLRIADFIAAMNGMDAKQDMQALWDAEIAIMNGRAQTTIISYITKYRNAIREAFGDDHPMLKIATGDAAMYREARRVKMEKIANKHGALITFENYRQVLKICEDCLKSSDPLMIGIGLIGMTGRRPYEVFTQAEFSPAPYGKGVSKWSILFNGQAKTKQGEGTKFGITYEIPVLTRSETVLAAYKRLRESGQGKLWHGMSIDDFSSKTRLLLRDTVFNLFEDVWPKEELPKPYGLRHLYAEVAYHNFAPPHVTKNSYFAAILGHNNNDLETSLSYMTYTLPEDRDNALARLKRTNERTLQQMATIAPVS

TelA (ΔN) = target: T4, TelA (ΔN) (Agrobacterium tumefaciens, UniProt Q7CWV1 107-442); assay: as above; details: protein: recombinant
T4 sequence: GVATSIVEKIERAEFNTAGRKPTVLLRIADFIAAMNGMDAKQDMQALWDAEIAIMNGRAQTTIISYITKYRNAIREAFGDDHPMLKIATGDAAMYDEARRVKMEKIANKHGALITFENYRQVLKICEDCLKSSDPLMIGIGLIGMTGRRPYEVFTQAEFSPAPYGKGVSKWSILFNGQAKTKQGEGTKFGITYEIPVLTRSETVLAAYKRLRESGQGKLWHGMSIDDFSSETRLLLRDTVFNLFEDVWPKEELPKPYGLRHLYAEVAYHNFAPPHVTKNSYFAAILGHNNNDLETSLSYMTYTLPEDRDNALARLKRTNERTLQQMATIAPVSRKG

TelA (ΔC3; D202AE337K) = target: T5, TelA (ΔC3; D202AE337K) (Agrobacterium tumefaciens, UniProt Q7CWV1 1-439, D202A;E337K); assay: as above; details: protein: recombinant; chain copies: 2; label: 5'-fluorescein on strand 1; 5' overhang 2 nt at both ends
T5 sequence: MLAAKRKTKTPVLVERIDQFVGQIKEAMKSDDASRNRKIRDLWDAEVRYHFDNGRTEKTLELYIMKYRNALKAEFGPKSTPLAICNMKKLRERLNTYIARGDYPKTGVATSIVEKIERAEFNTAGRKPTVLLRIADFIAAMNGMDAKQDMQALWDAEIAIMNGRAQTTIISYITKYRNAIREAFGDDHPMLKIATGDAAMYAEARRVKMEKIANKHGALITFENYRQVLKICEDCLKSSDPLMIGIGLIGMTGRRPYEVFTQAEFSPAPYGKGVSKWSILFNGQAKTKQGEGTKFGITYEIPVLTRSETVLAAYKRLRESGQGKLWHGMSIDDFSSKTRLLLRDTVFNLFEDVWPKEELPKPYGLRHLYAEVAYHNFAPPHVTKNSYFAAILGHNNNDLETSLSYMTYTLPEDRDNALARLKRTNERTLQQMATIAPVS

TelA wild type = target: T6, TelA wild type (Agrobacterium tumefaciens, UniProt Q7CWV1 1-442); assay: EMSA; 2 mM Ca2+; c1 and c2 complexes; EMSA: HEPES pH 7.6, 1 mM DTT, 2 mM CaCl2, 100 ug/mL BSA, 50 mM potassium glutamate, 0.8 ug/mL supercoiled pUC19 competitor, 76 ng/mL heparin sulphate, 2 nM labeled rTel, 0 C; details: protein: recombinant; chain copies: 2; label: 5'-fluorescein on strand 1; 5' overhang 2 nt at both ends
T6 sequence: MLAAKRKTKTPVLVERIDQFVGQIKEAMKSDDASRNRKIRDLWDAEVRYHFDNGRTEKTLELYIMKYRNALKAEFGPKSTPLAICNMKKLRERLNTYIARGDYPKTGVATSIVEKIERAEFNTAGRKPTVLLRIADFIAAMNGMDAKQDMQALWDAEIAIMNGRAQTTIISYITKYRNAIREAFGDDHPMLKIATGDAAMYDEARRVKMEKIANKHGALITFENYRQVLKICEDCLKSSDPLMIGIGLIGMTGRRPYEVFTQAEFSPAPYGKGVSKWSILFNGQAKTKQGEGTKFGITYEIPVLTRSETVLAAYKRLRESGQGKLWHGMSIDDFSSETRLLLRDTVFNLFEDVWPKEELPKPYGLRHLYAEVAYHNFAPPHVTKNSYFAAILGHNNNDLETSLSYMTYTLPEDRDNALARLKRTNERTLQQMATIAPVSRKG

## TelA (1–106), N-terminal domain of the Agrobacterium tumefaciens telomere resolvase TelA (from UniProt A0A822V2W1 1-106) (domain or fragment)
[1]
  fold reduction of the initial rate of telomere resolution by (ΔN; E337K) at 0°C when the N-terminal domain (N, 800 nM, about 10-fold molar excess) is added in trans: 22 fold

## TelA (1–106) N-terminal domain with the K9E mutation (from UniProt A0A822V2W1 1-106) (domain or fragment)
[1]
  fold reduction of the initial rate of telomere resolution by (ΔN; E337K) at 0°C when (N; K9E) is added in trans: 10 fold

B1: rTel (OGCB951F/OGCB952) (dsDNA)
DNA 1: AACTCTAACCATTGCGCGATCGATCATAATAACAATATCATGATATTGTTATTGTAATCGATCGCGGATCCCGGGCGTAGCCACGTAGGT
DNA 2: GAACCTACGTGGCTACGCCCGGGATCCGCGATCGATTACAATAACAATATCATGATATTGTTATTATGATCGATCGCGCAATGGTTAGAG
[2]
  binding result: binds
[3]
  binding result: no binding
TelA (ΔNΔC3; D202RE337K)
  binding result: binds
TelA (ΔN); chain copies: 2, label: 5'-fluorescein on strand 1, 5' overhang 2 nt at both ends
  binding result: no binding
TelA (ΔC3; D202AE337K)
  binding result: binds
TelA wild type
  binding result: binds

B2: hairpin telomere (hp), OKBA28F (structured_DNA)
DNA: ATCCCTCTAACCATTGCGCGATCGATCATAATAACAATATCATGATATTGTTATTATGATCGATCGCGCAATGGTTAGAGG
TelA (ΔN); label: 5'-fluorescein, hairpin, 5' overhang 3 nt
  binding result: no binding
